# From PMC8932546 (The Journal of Experimental Medicine, 2022)
# B1: BG18 IgG (antibody, V domains shown)
# VH: QVQLRESGPGLVKPSETLSLSCTVSQDSRPSDHSWTWVRQSPGKALEWIGDIHYNGATTYNPSLRSRVRIELDQSIPRFSLKMTSMTAADTGMYYCARNAIRIYGVVALGEWFHYGMDVWGQGTAVTVSS
# VL: SSELTQPPSVSVSPGQTARITCSGAPLTSRFTYWYRQKPGQAPVLIISRSSQRSSGWSGRFSASWSGTTVTLTIRGVQADDEADYYCQSSDTSDSYKMFGGGTKLTVL
# B2: 7-269 expressed as recombinant IgG (antibody, V domains shown)
# VH: QMQLVESGGGVVQPGRSLRLSCAASRFDFNRFGMHWVRQAPGKGLEWVAYMSYDGGDRYYADSVKGRFTISRDNSKSTLHLQMDSLRPEDTAVYYCAKDDILGDCSTSHCYWGYYYQGMDVWGHGTTVTVSS
# VL: EIVMTQSPDTLSVSPGERVTLSCRASQSVGSNLVWYQQKPGQSTRVLIYGASTRAATVPARFSGGGSGTEFTLTISSVQSEDFAVYYCYHYNNWPRGSFGQGTKLEIK
# B3: 10-1074 IgG (antibody, V domains shown)
# VH: QVQLQESGPGLVKPSETLSVTCSVSGDSMNNYYWTWIRQSPGKGLEWIGYISDRESATYNPSLNSRVVISRDTSKNQLSLKLNSVTPADTAVYYCATARRGQRIYGVVSFGEFFYYYSMDVWGKGTTVTVSS
# VL: LSVALGETARISCGRQALGSRAVQWYQHRPGQAPILLIYNNQDRPSGIPERFSGTPDINFGTRATLTISGVEAGDEADYYCHMWDSRSGFSWSFGGATRLTVL
# Target: YU2 gp120 (HIV-1 clade B, isolate YU2, UniProt P35961)
# Sequence (P35961 whole entry, looked up): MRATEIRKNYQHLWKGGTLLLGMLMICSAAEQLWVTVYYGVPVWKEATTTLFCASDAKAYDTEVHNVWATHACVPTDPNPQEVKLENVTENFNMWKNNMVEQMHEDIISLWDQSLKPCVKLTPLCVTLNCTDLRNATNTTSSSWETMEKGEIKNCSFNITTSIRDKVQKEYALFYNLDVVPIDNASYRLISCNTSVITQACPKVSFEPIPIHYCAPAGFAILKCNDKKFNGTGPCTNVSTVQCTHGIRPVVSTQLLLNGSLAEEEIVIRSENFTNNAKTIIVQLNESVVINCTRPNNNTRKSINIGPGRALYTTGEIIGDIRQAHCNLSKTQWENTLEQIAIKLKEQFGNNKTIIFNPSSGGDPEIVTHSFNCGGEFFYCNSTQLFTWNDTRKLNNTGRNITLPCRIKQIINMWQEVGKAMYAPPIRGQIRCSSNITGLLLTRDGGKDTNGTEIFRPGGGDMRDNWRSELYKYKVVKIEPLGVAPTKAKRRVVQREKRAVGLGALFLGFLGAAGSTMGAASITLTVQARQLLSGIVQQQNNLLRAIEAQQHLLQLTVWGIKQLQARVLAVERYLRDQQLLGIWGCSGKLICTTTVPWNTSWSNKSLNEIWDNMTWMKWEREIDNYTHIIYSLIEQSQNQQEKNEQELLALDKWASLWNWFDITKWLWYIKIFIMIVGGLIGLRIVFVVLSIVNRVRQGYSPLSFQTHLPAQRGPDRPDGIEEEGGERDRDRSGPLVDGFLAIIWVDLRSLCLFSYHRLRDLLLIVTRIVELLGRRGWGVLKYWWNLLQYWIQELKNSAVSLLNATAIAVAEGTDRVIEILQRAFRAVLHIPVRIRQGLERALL
# Test: ELISA
row,Binder,binding result
1,B1,binds
2,B2,binds
3,B3,binds
